Data: patent publication US20260008815A1, “CYCLIC PEPTIDE OR SALT THEREOF, AND USES THEREOF” (FUJIFILM Corporation, priority 2023, published 2026)
Numbered stars: 1 amine (or outer) side, 2 acyl side, 3 side chain; on linkers, the order of the positions; unused ones are H or OH. Bridge positions count the residues as written; N and C are the ends. Ends that are not written are not given here. acetyl = acetyl (haloacetyl before ring closure) on the side-chain amine, O=C(C[*:1])[*:2]; COCH2 = acetyl group that carries the bridge

B1: cyclic peptide SEQ ID NO: 38 (peptide)
peptide: QCSYLYQYVFERYKVTVPK(COCH2)D
modifications: thioether 2-19; not fully specified; printed as Q-(C)-SYLYQYVFERYKVTVP-(K(acetyl))-D
B2: cyclic peptide SEQ ID NO: 39 (peptide)
peptide: QCENWLSQDQWKYFWQYK(COCH2)I
modifications: thioether 2-18; not fully specified; printed as Q-(C)-ENWLSQDQWKYFWQY-(K(acetyl))-I
B3: cyclic peptide SEQ ID NO: 40 (peptide)
peptide: DCSGNFFSKEQFHYLELFK(COCH2)K
modifications: thioether 2-19; not fully specified; printed as D-(C)-SGNFFSKEQFHYLELF-(K(acetyl))-K
B4: cyclic peptide SEQ ID NO: 34 (peptide)
peptide: CRALLRGAPFHLAEC
modifications: disulfide 1-15
notes: also called cyclic peptide reported in WO2000/003245A

Target: T1, Recombinant Human FGFR2 alpha (IIIc) Fc Chimera Protein, CF (R&D systems, 712-FR-050) (human, UniProt P21802 22-377)
T1 construct: bought; not shown: Fc part of the chimera
Experiment: ELISA on plate-bound FGFR2-Fc
Conditions: not given
Method in brief: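 Peptide binding scored by category from dose-response of background-corrected luminescence (FGFR-coated minus uncoated wells). Detection via anti-Myc antibody (2 h, room temperature) after 3 h peptide incubation on wells coated with 5 ng FGFR2 alpha (IIIc)-Fc.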

T1 sequence (P21802 22-377, change not shown): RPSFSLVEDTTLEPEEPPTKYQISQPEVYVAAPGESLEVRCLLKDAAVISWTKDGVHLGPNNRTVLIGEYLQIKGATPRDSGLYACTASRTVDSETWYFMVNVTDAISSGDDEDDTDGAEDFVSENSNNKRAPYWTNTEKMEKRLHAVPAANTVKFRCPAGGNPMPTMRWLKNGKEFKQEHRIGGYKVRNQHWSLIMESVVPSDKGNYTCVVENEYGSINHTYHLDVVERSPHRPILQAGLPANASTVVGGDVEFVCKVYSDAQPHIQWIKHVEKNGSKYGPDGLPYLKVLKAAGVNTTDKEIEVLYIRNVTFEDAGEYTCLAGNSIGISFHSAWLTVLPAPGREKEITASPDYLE

Molecule | ELISA luminescence signal at 10 nmol/L peptide, relative to SEQ ID NO: 47 (=1) [ratio]
B1 | ≥ 0.7
B2 | ≥ 0.7
B3 | ≥ 0.7
YCTDNYIDDIQFWYLFLYK(COCH2)Q (thioether 2-19) [cyclic peptide SEQ ID NO: 107] | 0.5 to 0.7
YCTDNYIDDIQFWYLFLYK(COCH2)H (thioether 2-19) [cyclic peptide SEQ ID NO: 114] | ≥ 0.7
LCRNYINPQQWRYFALYK(COCH2)Y (thioether 2-18) [cyclic peptide SEQ ID NO: 108] | ≥ 0.7
LCRNYINPQQWRYFALYK(COCH2)N (thioether 2-18) [cyclic peptide SEQ ID NO: 117] | ≥ 0.7
DCFINELQYFYIQQYKK (not fully specified; thioether ring (C)-(K(acetyl))) [cyclic peptide SEQ ID NO: 109] | 0.5 to 0.7
QCQTDHQQQLYFIYQYLQK(COCH2)I (thioether 2-19) [cyclic peptide SEQ ID NO: 110] | 0.1 to 0.5
QCDQEFYLALYAWTLRSYK(COCH2)L (thioether 2-19) [cyclic peptide SEQ ID NO: 111] | 0.1 to 0.5
HCQPEYELYYIYLYLNALK(COCH2)I (thioether 2-19) [cyclic peptide SEQ ID NO: 112] | 0.1 to 0.5
LCGNYITPLQWKYFQTYK(COCH2)W (thioether 2-18) [cyclic peptide SEQ ID NO: 41] | ≥ 0.7
RCINYWSGQQFYFFQQYK(COCH2)F (thioether 2-18) [cyclic peptide SEQ ID NO: 113] | 0.1 to 0.5
NCPNYWSQIQWHYFQAYK(COCH2)Q (thioether 2-18) [cyclic peptide SEQ ID NO: 115] | ≥ 0.7
QCYQNWYLYQYLVERYYK(COCH2)D (thioether 2-18) [cyclic peptide SEQ ID NO: 116] | 0.1 to 0.5
LCPVPQQTDYLRWYQIIHK(COCH2)Q (thioether 2-19) [cyclic peptide SEQ ID NO: 118] | 0.1 to 0.5
QCRYFWQYVLERYRVRLPK(COCH2)E (thioether 2-19) [cyclic peptide SEQ ID NO: 119] | ≥ 0.7

Molecule | ELISA luminescence signal at 10 nmol/L peptide, relative to SEQ ID NO: 47 (=1) [ratio]
QCWYIQQYIWERYFLWHNK(COCH2)E (thioether 2-19) [cyclic peptide SEQ ID NO: 120] | 0.1 to 0.5
DCYWDDQQYSFLQLYK(COCH2)R (thioether 2-16) [cyclic peptide SEQ ID NO: 121] | ≥ 0.7
QCENWVNSTQFEFFWQYK(COCH2)T (thioether 2-18) [cyclic peptide SEQ ID NO: 122] | 0.5 to 0.7
QCYFLSQYILERYKVHK(COCH2)L (thioether 2-17) [cyclic peptide SEQ ID NO: 42] | ≥ 0.7
QCQNFITEVQFTYFWHYK(COCH2)T (thioether 2-18) [cyclic peptide SEQ ID NO: 123] | ≥ 0.7
DCRDLQLFYIYQYLDALKK (not fully specified; thioether ring (C)-(K(acetyl))) [cyclic peptide SEQ ID NO: 124] | 0.1 to 0.5
YCRDNYFYLEQWQYLYLYK(COCH2)H (thioether 2-19) [cyclic peptide SEQ ID NO: 125] | ≥ 0.7
LCEINWLSQEQYGYFIEYK(COCH2)T (thioether 2-19) [cyclic peptide SEQ ID NO: 126] | ≥ 0.7
YCPYNFYNIIQFHYFLTYK(COCH2)T (thioether 2-19) [cyclic peptide SEQ ID NO: 127] | ≥ 0.7
PCVQNYFNDLQWIFLQHYK(COCH2)R (thioether 2-19) [cyclic peptide SEQ ID NO: 128] | ≥ 0.7
ECPWNFVNQLQWQYFITYK(COCH2)V (thioether 2-19) [cyclic peptide SEQ ID NO: 129] | ≥ 0.7
HCDGNWWNSQQFFYLLLYK(COCH2)H (thioether 2-19) [cyclic peptide SEQ ID NO: 130] | ≥ 0.7
ECQENFVDRQQYWYFLSYK(COCH2)F (thioether 2-19) [cyclic peptide SEQ ID NO: 132] | ≥ 0.7
B4 | < 0.1
CRALLRGAPFHLAEK(COCH2) (thioether 1-15) [cyclic peptide SEQ ID NO: 36] | < 0.1
YRSRKYSSWYVALKR (not fully specified) [linear peptide SEQ ID NO: 35] | < 0.1

Target: T2, Recombinant Human FGFR2 alpha (IIIc) Fc Chimera Protein (Homo sapiens, UniProt P21802)
T2 construct: Fc (chimera); purchased R&D systems 712-FR-050
Experiment: ELISA binding affinity of enzymatically synthesized peptide to FGFR
Conditions: ELISA luminescence signal at 10 nmol/L peptide, SEQ ID NO: 47 at 10 nmol/L standardized to 1; enzyme synthesis product
Protocol: The binding affinity of the peptide to FGFR was evaluated using an ELISA method.
The binding affinity of the enzymatically synthesized peptide to FGFR was measured by evaluating the amount of the peptide bound to FGFR by ELISA.
First, 5 ng of Recombinant Human FGFR2 alpha (IIIc) Fc Chimera Protein (R&D systems, 712-FR-050) was immobilized in each well of a 96-well plate, and blocked with Pierce Protein-Free (PBS) Blocking Buffer (Thermo, 37572), and a peptide diluted with Can Get Signal Immunoreaction Enhancer Solution I (TOYOBO, NKB-101) was then added and reacted at room temperature for 3 hours. After washing with 0.05% Tween 20-containing phosphate buffered saline (PBS), an anti-Myc antibody (Cell Signaling, 14038S) diluted with Can Get Signal Immunoreaction Enhancer Solution II (TOYOBO, NKB-101) was added and reacted at room temperature for 2 hours. After washing with 0.05% Tween 20-containing PBS, SuperSignal ELISA Femto Substrate (Thermo, 37075) was added, and the luminescence amount was measured. The dose-response relationship was calculated from using the difference between the luminescence amount in the well in which FGFR was immobilized and the luminescence amount in the well in which FGFR was not immobilized, and the concentration of the peptide at the time of reaction, and the binding affinity to FGFR was evaluated according to the following evaluation criteria. The evaluation result preferably satisfies the evaluation criteria A, B, or C.
In a case where a value of a luminescence signal emitted by the cyclic peptide set forth in SEQ ID NO: 47 at a reaction concentration of 10 nmol/L is standardized to 1, evaluation criteria of the luminescence signal value emitted by the cyclic peptide at a reaction concentration of 10 nmol/L is as follows. • A: 0.7 or more • B: 0.5 or more and less than 0.7 • C: 0.1 or more and less than 0.5 • D: less than 0.1.

T2 sequence (P21802 with tags, fused parts or gaps limits assumed): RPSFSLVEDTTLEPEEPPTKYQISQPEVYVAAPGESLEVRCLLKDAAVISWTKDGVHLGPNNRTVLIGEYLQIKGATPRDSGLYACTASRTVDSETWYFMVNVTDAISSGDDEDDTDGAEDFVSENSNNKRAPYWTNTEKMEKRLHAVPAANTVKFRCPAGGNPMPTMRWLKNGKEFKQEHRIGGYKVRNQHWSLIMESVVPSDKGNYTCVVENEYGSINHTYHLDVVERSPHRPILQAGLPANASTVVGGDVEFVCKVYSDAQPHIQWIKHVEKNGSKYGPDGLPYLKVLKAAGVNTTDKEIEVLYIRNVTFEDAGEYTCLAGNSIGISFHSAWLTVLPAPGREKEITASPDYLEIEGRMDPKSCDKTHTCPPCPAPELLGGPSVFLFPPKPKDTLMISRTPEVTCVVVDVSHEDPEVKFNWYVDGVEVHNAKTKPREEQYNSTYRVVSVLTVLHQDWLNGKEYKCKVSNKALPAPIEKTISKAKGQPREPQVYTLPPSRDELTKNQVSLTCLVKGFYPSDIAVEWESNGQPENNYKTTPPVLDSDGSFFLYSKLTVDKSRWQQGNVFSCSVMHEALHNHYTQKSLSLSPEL

Molecule | Evaluation result of binding affinity to FGFR
420 (YCEAQPYYFQLYRLWHRQEK(COCH2)P; thioether 2-20 via acetyl) [compound 420] | C (0.1 or more and less than 0.5)
266 (YCEENYLDPEQYTYFIYFK(COCH2)Y; thioether 2-19) [compound 266] | A (0.7 or more)
62 (KCPQNFINPVQARYFQHYK(COCH2)N; thioether 2-19 (inferred)) [compound 62] | C (0.1 or more and less than 0.5)
359 (YCEENYLDPEQYQYFIMFK(COCH2)Y; thioether 2-19) [compound 359] | A (0.7 or more)
406 (PCEQQNFHSVIQWHFFAQYK(COCH2)N; thioether 2-20 (inferred)) [compound 406] | A (0.7 or more)
82 (TCPQNFINPVQWRYFQHYK(COCH2)N; thioether 2-19 (inferred)) [compound 82] | A (0.7 or more)
60 (KCPQNFINAVQWRYFQHYK(COCH2)N; thioether 2-19 (inferred)) [compound 60] | A (0.7 or more)
324 (YCEANYLDPEQYQYFIYFK(COCH2)Y; thioether 2-19 (inferred)) [compound 324] | A (0.7 or more)
